Assay results taken from paper PMC7504222.

Target: C-X-C motif chemokine receptor 4 (CXCR4) (human (endogenous in primary CD4+ T cells)) (UniProt P61073)
UniProt P61073, sequence (P61073 whole entry): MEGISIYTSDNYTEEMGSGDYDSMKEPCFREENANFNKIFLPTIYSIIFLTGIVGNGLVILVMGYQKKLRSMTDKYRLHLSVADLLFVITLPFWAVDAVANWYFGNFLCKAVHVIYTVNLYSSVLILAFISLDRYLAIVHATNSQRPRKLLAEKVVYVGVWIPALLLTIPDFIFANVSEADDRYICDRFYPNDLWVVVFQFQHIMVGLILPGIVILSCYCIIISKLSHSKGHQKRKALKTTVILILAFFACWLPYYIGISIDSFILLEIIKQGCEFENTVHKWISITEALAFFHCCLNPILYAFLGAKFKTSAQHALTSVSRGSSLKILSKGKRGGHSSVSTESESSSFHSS

median fluorescence intensity of MitoTracker Deep Red-labelled mitochondria on CD4+ T cells after 2 h co-culture, with 20 µg/mL blocking SDF-1 Ab; flow cytometry: 21.1
median fluorescence intensity of MitoTracker Deep Red-labelled mitochondria on CD4+ T cells after 2 h co-culture, without SDF-1 Ab; flow cytometry: 44.8
Substance: stromal cell-derived factor-1 (SDF-1) (from UniProt P48061 22-93) (ligand)
